# Results: the DeepSol protein solubility set
# Assay: soluble on expression in E. coli; label from the status in PepcDB or PDB records
row,Sequence,soluble on expression in E. coli
1,SNAMKYTVYLFDFDYTLADSSRGIVTCFRSVLERHGYTGITDDMIKRTIGKTLEESFSILTGITDADQLESFRQEYSKEADIYMNANTILFPDTLPTLTHLKKQGIRIGIISTKYRFRILSFLRNHMPDDWFDIIIGGEDVTHHKPDPEGLLLAIDRLKACPEEVLYIGDSTVDAGTAAAAGVSFTGVTSGMTTAQEFQAYPYDRIISTLGQLISVPEDKSGCPL,soluble
2,SNAMLNTLIVGASGYAGAELVTYVNRHPHMNITALTVSAQSNDAGKLISDLHPQLKGIVELPLQPMSDISEFSPGVDVVFLATAHEVSHDLAPQFLEAGCVVFDLSGAFRVNDATFYEKYYGFTHQYPELLEQAAYGLAEWCGNKLKEANLIAVPGCYPTAAQLALKPLIDADLLDLNQWPVINATSGVSGAGRKAAISNSFCEVSLQPYGVFTHRHQPEIATHLGADVIFTPHLGNFPRGILETITCRLKSGVTQAQVAQALQQAYAHKPLVRLYDKGVPALKNVVGLPFCDIGFAVQGEHLIIVATEDNLLKGAAAQAVQCANIRFGYAETQSLI,soluble
3,SNAMNASAVETIYESTEDKAALTSVVDLVKLSDQYRQSAILHYAVADKLFDLTQTGRTPAEVAASFGMVEGKAAILLHALAALGLLTKEGDAFRNTALTERYLTTTSADYIGPIVEHQYLQWDNWPRLGEILRSEKPLAFQQESRFAHDTRARDAFNDAMVRLSQPMVDVVSELGVFARARTVIDLAGGHGTYLAQVLRRHPQLTGQIWDLPTTRDAARKTIHAHDLGGRVEFFEKNLLDARNFEGGAADVVMLNDCLHYFDAREAREVIGHAAGLVKPGGALLILTMTMNDDRVTPALSADFSLHMMVNTNHGELHPTPWIAGVVRDAGLAVGERSIGRYTLLIGQRSSGE,soluble
4,SNAMNIQILQEQANTLRFLSADMVQKANSGHPGAPLGLADILSVLSYHLKHNPKNPTWLNRDRLVFSGGHASALLYSFLHLSGYDLSLEDLKNFRQLHSKTPGHPEISTLGVEIATGPLGQGVANAVGFAMAAKKAQNLLGSDLIDHKIYCLCGDGDLQEGISYEACSLAGLHKLDNFILIYDSNNISIEGDVGLAFNENVKMRFEAQGFEVLSINGHDYEEINKALEQAKKSTKPCLIIAKTTIAKGAGELEGSHKSHGAPLGEEVIKKAKEQAGFDPNISFHIPQASKIRFESAVELGDLEEAKWKDKLEKSAKKELLERLLNPDFNKIAYPDFKGKDLATRDSNGEILNVLAKNLEGFLGGSADLGPSNKTELHSMGDFVEGKNIHFGIREHAMAAINNAFARYGIFLPFSATFFIFSEYLKPAARIAALMKIKHFFIFTHDSIGVGEDGPTHQPIEQLSTFRAMPNFLTFRPADGVENVKAWQIALNADIPSAFVLSRQKLKALNEPVFGDVKNGAYLLKESKEAKFTLLASGSEVWLCLESANELEKQGFACNVVSMPCFELFEKQDKAYQERLLKGEVIGVEAAHSNELYKFCHKVYGIESFGESGKDKDVFERFGFSVSKLVNFILSK,soluble
5,SNAMSGNGNAAATAEENSPKMRVIRVGTRKSQLARIQTDSVVATLKASYPGLQFEIIAMSTTGDKILDTALSKIGEKSLFTKELEHALEKNEVDLVVHSLKDLPTVLPPGFTIGAICKRENPHDAVVFHPKFVGKTLETLPEKSVVGTSSLRRAAQLQRKFPHLEFRSIRGNLNTRLRKLDEQQEFSAIILATAGLQRMGWHNRVGQILHPEECMYAVGQGALGVEVRAKDQDILDLVGVLHDPETLLRCIAERAFLRHLEGGCSVPVAVHTAMKDGQLYLTGGVWSLDGSDSIQETMQATIHVPAQHEDGPEDDPQLVGITARNIPRGPQLAAQNLGISLANLLLSKGAKNILDVARQLNDAH,soluble
6,SNAMSTISRDSCPALRAGVRLQHDRARDQWVLLAPERVVELDDIALVVAQRYDGTQSLAQIAQTLAAEFDADASEIETDVIELTTTLHQKRLLRL,soluble
7,SNAMTQSPIFLTPVFKEKIWGGTALRDRFGYSIPSESTGECWAISAHPKGPSTVANGPYKGKTLIELWEEHREVFGGVEGDRFPLLTKLLDVKEDTSIKVHPDDYYAGENEEGELGKTECWYIIDCKENAEIIYGHTARSKTELVTMINSGDWEGLLRRIKIKPGDFYYVPSGTLHALCKGALVLETQQNSDATYRVYDYDRLDSNGSPRELHFAKAVNAATVPHVDGYIDESTESRKGITIKTFVQGEYFSVYKWDINGEAEMAQDESFLICSVIEGSGLLKYEDKTCPLKKGDHFILPAQMPDFTIKGTCTLIVSHI,soluble
8,SNAMTSLEEITKAIMADSQNKVFTEKNIEPLFAAPKTARINIVGQAPGIKAQESRLYWNDKSGDRLREWMGVDYDTFYHSGYFAVIPMDFYYPGKGKSGDLPPRKGFAQKWHQPILDLLPDIQLTILIGNYAQKYYLHQKSSVKLTDTVAHYKKYLPDYFPLVHPSPRNQIWMSRHPWFEAQVVPDLKKIIQQIIQSS,soluble
9,SNAMVKDRQIQKTKVAIYNAFISLLQENDYSKITVQDVIGLANVGRSTFYSHYESKEVLLKELCEDLFHHLFKQGRDVTFEEYLVHILKHFEQNQDSIATLLLSDDPYFLLRFRSELEHDVYPRLREEYITKVDIPEDFLKQFLLSSFIETLKWWLHQRQKMTVEDLLKYYLTMVER,soluble
10,SNASVRPSLWEFSSRVGMHVGASTPVPVPQAMEHVYAWYPRLNPMVQLSASRRLLAGSPWAVNVGIAVEKKGMEATTRVKDMKVAIVSDSPYAGNPDEEYPGLFTGDNNTEIRLGYLTIPVQAEYNMLKDRLKLRGGLYTSLLLESSFRVIIDGTMVYDDPKLGTAQMDLRELNFSDKIKGADFGVIIGADYYFARQ,not soluble
11,SNTKKEIIWYKEKAQKTNYSVVYIHGFGASKNEIYPVPNNIAKALNANIFFTRLKGHGINNKNAFRGITTQDWLRDIDEAINIGKLIGDKLVLIGTSNGGTASIWALANYPNEINSAVLISPNIFPYDKRTNIVYYPWGRQIAYLITGGYNKFETKEYKRKEHPTIKSHSSRVQHVDAIIAMMGLVTLLNSYNFNEIKIPLIITHTPNDHTVDPIKINEFIKNYGGEKKDIPIILLENSHAHLPIGNQSYKSAQNTSYFTKYVFDFINKINK,not soluble
12,SPGNRENKEKKVFISLVGSRGLGCSISSGPIQKPGIFISHVKPGSLSAEVGLEIGDQIVEVNGVDFSNLDHKEAVNVLKSSRSLTISIVAAAGRELFMTDR,soluble
13,SPLPVALQTRLAKRGILKHLEPEPEEEIIAEDYDDDPVDYEATRLEGLPPSWYKVFDPSCGLPYYWNADTDLVSWLSPHDPNSVVTKSAKKLRSSNADAEEKLDRSHDKSDRGHDKSDRSHEKLDRGHDKSDRGHDKSDRDRERGYDKVDRERERDRERDRDRGYDKADREEGKERRHHRREELAPYPKSKKAVSRKDEELDPMDPSSYSDAPRGTWSTGLPKRNEAKTGADTTAAGPLFQQRPYPSPGAVLRANAEASRTKQQD,soluble
14,SPSTNRKYPPLPVDKLEEEINRRMADDNKLFREEFNALPACPIQATCEAASKEENKEKNRYVNILPYDHSRVHLTPVEGVPDSDYINASFINGYQEKNKFIAAQGPKEETVNDFWRMIWEQNTATIVMVTNLKERKECKCAQYWPDQGCWTYGNVRVSVEDVTVLVDYTVRKFCIQQVGDVTNRKPQRLITQFHFTSWPDFGVPFTPIGMLKFLKKVKACNPQYAGAIVVHCSAGVGRTGTFVVIDAMLDMMHSERKVDVYGFVSRIRAQRCQMVQTDMQYVFIYQALLEHYLYGDTELEVT,soluble
15,SQQVDKIKASYPLFLDQDYKDMLAKKRDGFEEKYPQDKIDEVFQWTTTKEYQELNFQREALTVNPAKACQPLGAVLCALGFEKTMPYVHGSQGCVAYFRSYFNRHFREPVSCVSDSMTEDAAVFGGQQNMKDGLQNCKATYKPDMIAVSTTCMAEVIGDDLNAFINNSKKEGFIPDEFPVPFAHTPSFVGSHVTGWDNMFEGIARYFTLKSMDDKVVGSNKKINIVPGFETYLGNFRVIKRMLSEMGVGYSLLSDPEEVLDTPADGQFRMYAGGTTQEEMKDAPNALNTVLLQPWHLEKTKKFVEGTWKHEVPKLNIPMGLDWTDEFLMKVSEISGQPIPASLTKERGRLVDMMTDSHTWLHGKRFALWGDPDFVMGLVKFLLELGCEPVHILCHNGNKRWKKAVDAILAASPYGKNATVYIGKDLWHLRSLVFTDKPDFMIGNSYGKFIQRDTLHKGKEFEVPLIRIGFPIFDRHHLHRSTTLGYEGAMQILTTLVNSILERLDEETRGMQATDYNHDLVR,soluble
16,SRDSAFRERLLRLAPKYPLVLAVSGGGDSVALALLVKEAGRQAVVAHLDHGLRPESPLDQAFVRALAERLGFPFFTERVEVARIAQARGENLEAVAREVRYAFLHRVAREVGARAILTAHTLDDQAETVLLQLLQGTARATGIREREGIVVRPLLAHTREELRAYLRARGEAWREDPTNQDPALDRNFLRLFVFPLLEERFPAAKRALARFAEARAEEEGVLERQAEARLLPDPRFFVPAFRAAPLLEAPLAVRRRALRRLLEKLGLRPEARLVLLLEEALRGRPQTLPGGVLARRKGGTLFLLPPRPRLPLPPGFRRPAPGDYLERPSGRKRLVDFLAEKGVPRELKPLWPVRAEGNRVVEVLGLYPPPPEEAHMAEALAEAASAFREGEVPVGAVLVLPGRVLRAHNRVEGLRDPTAHAEMLLLREAGPEARGGRLYVTLEPCLMCHHALAQAGVEVVYGAENLKEGALTRFGLPTRARGGVRERECAKLLRDFFARLREGCRSG,soluble
17,SRMEQVIVKQGKDALTADAVFVSANPLSDSLLKSTEQLERSVMTRFSTMAFSDNGMQLISVRGVDESYPLMGELVLDGNESGRVKPNQLWLDERIMAQLEVTKGDNVTIGDADFTVSGAVLMEPGLSFNPFQQMPAAYIHQSDVEKTGAIQVGSRVQYRLFLKADNAALKQLQDKTELSPSDRWRTQDTASRSNEVFDRTTQ,not soluble
18,SRMMVIKNNSEETKSREYIVIGQVFFASSDKFIASFDFKEVIECVTIDLSAAHFWDITSASALDKVVVKFRREGTQVELIGMNQATKTIVDKFGVHDKPEEVEKLLAG,not soluble
19,SSEADQALVGPKADEPSPPAEEKDEGGGKEAAADAAPGPSASFRLMVTRREPAVKLQYAVSGLEPLSWSEDHRVSVSTARSVAVLELICDVHNPGQDLVIHRTSVPAPLNSCLLKVGSKTEVAECKEKFASSKDPTISQTFMLDRMFNPEGKALPPMRGFKYTSWSPMGCDANGRCLLAALTMDNRLTVQVNLNRLQWVQLVDLTEIYGDRLYETSYRLSKNEAPEGNLGDFAEFQRRHSMQTPVRMEWSSICTTQQVKHNNECRDVSS,soluble
20,SSEVLDGFDKVDKSLASSIDGSDKRNNLVLSELNTAYRTNPEKVKVWYERSLVLQKEADSLCTFIDDLKLAIARESDGKDAKVNDIRRKDNLDASSVIMLNPINGKGSTLRKEVDKFRELVATLMTDKAKLKLIEQALNTESGTKGKSWESSLFENMPTVAAITLLTKLQSDVRYAQGEVLADLVKSVDVGDYRVNSITAQVIPQSQIVMSGDTYKANIVLSSVDTTQRPDVFVNGKLLSPENMGLFTATAGAPGTYPVKGYIEMMGNDGVKIRRDFESEYFVTE,not soluble
21,SSFLGGLFGPACEIDVILNDAESRKTAELKTEEGKLEKHYLFYDGESVSGKVNINVKQTSKRLEHQGIRIEFVGQIELFSDKSNTHEFVNLVKELALPGELTQNRSYDFEFMQVEKPYESYVGANVRLRYFLKVTIVRRLSDLVKEYDLIVHQLATYPDVNNSIKMEVGIEDCLHIEFEYNKSKYHLKDVIVGKIYFLLVRIKIQHMELQLIKKEMTGIGPSTTTETETVAKYEIMEGAPVKGESIPIRLFLAGYDLTPTMRDVNKKFSVRYFLNLVLVDEEDRRYFKQQEIVLWRKAPEKMRKRNFHQRYESPEPRPSLSAEQPEM,soluble
